Assay [1] concerns the target T1, TRIB1(84–372) (human, UniProt Q96RU8 84-372).
T1 sequence: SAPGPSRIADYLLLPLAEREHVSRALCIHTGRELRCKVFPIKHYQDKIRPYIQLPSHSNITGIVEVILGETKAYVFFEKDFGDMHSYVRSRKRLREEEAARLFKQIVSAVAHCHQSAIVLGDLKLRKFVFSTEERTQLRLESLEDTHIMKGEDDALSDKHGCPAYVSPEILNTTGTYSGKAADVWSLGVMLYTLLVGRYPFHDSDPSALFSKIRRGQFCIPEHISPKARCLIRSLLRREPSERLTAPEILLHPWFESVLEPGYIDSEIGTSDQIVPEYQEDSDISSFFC
Kind of assay: ITC. On the technique in general: ITC needs no label: the signal is the heat of the interaction.

The next assay addresses T2, WT GST-TRIB1(84–372) (human, UniProt Q96RU8 84-372).
T2 sequence: T1 sequence
Kind of assay: pull-down.

In assay [2] the target is T3, TRIB1(84–343), the pseudokinase part of the crystallised fusion (human, UniProt Q96RU8 84-343).
T3 sequence: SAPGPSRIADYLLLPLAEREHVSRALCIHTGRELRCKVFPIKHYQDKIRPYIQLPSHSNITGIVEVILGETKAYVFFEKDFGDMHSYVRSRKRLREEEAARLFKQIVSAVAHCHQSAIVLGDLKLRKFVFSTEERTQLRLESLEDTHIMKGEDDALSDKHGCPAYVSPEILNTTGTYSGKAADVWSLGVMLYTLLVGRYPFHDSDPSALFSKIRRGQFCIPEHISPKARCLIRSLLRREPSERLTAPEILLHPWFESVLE
As to the kind of experiment: crystal structure.

Assay [3] concerns the target T1, TRIB1(84–372). As to the kind of experiment: differential scanning fluorimetry.

Take GDMCEHEASIDLSAYIESGEEQL [C/EBPε(31–53) fused to maltose-binding protein]: in the assay with TRIB1(84–372) [1], the binding result is “binds”.
With GGICEHETSIDISAYIDPAAFND [His6MBP-C/EBPα(53–75)], the binding result in the assay with WT GST-TRIB1(84–372) and with TRIB1(84–372) [1] was “binds” in each case.
Regarding GGICEHETSIDISAYIDPAAFND [C/EBPα(53–75), the degron part of the crystallised fusion], in assay [2], the binding result is reported as “binds”.
For GGICEHETSIDISAYIDPAAFND [C/EBPα peptide (53–75)], the binding result with TRIB1(84–372) [3] is reported as “binds”.
Take PAMYDDESAIDFSAYIDSMAAVP [C/EBPδ(50–72) fused to maltose-binding protein]: the binding result with TRIB1(84–372) [1] is recorded as “binds”.

For the origin of these results see publication doi:10.1101/313767 (bioRxiv, 2018).
